Data on 24 sequences can be found in the supplement of paper PMC9170038.

For the series, the system named is MS2 coat protein. Description: apparent KD of MS2 coat protein; designed switch direction (-1 OFF switch, 1 ON switch): -1; higher = weaker reporter binding. In outline:
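Three titration conditions were used: no input, 200 uM small-molecule ligand, and an oligonucleotide input. In each, SNAP-549-labelled MS2 coat protein was raised from 0.7 or 1.5 nM, doubling, to 3 µM over designed RNA switches transcribed on Illumina chips by stalled E. coli RNA polymerase. Curve fits of normalised cluster fluorescence gave values whose per-design median over clusters is the apparent KD.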

The mark [1] stands for this setting: Eterna round: R95, input ligand: FMN 200 uM.
Setting [2] is: Eterna round: R95, input ligand: microRNA oligo, concentration not stated.
Where [3] appears, read: Eterna round: R95, input ligand: none.
[4] abbreviates: input ligand: microRNA oligo, concentration not stated.

“AAGAAACAUGAGGAUCACCCAUGUGAGGAUAUGAGAAAGAAAAGAAAAGAAAGAAGAAUCAGAAGGCACAAAGG [salish99-ex1_r3_032] (puzzle: Exclusion 1)”: the “apparent KD of MS2 coat protein” value under setting [1] is 117 nM, the “apparent KD of MS2 coat protein” value under setting [2] stood at 77.7 nM and the “apparent KD of MS2 coat protein” value under setting [3] is 116 nM.

“AAGAAACAUGAGGAUCACCCAUGUGAGGAUAUGAGUAAGAAAAGAAAAGAAAGAAGAUUCAGAAGGCACAAAGG [salish99-ex1_r3_057] (puzzle: Exclusion 1)”: the “apparent KD of MS2 coat protein” value is, setting by setting: under setting [1], 94.7 nM; under setting [2], 58.1 nM; under setting [3], 73.2 nM.

As for “AAGAAACAUGAGGAUCACCCAUGUGAGGAUAUGAUAUGCUAAGCGUAAGCUUAGUAUAUCAGAAGGCACAAAGG [Salishxlusion 1 - Jieux - Exclusion 1] (Eterna round: R97, puzzle: Exclusion 1)”, the “apparent KD of MS2 coat protein” value came to 319 nM (input ligand: FMN 200 uM) and 120 nM (input ligand: none).

Take “AAGAAACAUGAGGAUCACCCAUGUGAGGAUAUGGCCCGCCCGGCGUGAGCUGGAUAAAUCAGAAGGCACAAAGG [salish99_ex1_r4_012] (Eterna round: R97, puzzle: Exclusion 1)”: the “apparent KD of MS2 coat protein” value was 57.2 nM (input ligand: FMN 200 uM) and 46 nM (input ligand: none).

On to “AAGAAACAUGAGGAUCACCCAUGUGAGGAUAUGUAAAAGAAAAGAAAAUAAAGAAGAAACAGAAGGCACAAAGG [Mat - Mod of Hog D21] (Eterna round: R96, puzzle: Exclusion 1)”, for which, under setting [4], the “apparent KD of MS2 coat protein” value amounted to 30.9 nM.

For the sequence “AAGAAACAUGAGGAUCACCCAUGUGAGGAUAUGUAAAAGAAAAGAAAAUAAAGAAGAAACAGAAGGCACAAAGG [Mat - Mod of Hog D21] (puzzle: Exclusion 1)”, the “apparent KD of MS2 coat protein” value under setting [1] turned out to be 51.8 nM, the “apparent KD of MS2 coat protein” value under setting [2] turned out to be 39.1 nM and the “apparent KD of MS2 coat protein” value under setting [3] was found to be 31.8 nM.

As to “AAGAAAGACGAAGGAUAUUCAGGCGCCGAAGUAGAAGAAGGUCGUCCGGGUGUCCUAAAACUUGAGGAUCACCCAAGUAGAAGA [Mutated MS2 EX1.2] (Eterna round: R96, puzzle: Exclusion NG 1)”, the “apparent KD of MS2 coat protein” value by setting is: (input ligand: FMN 200 uM) 62.1 nM; under setting [4], 6.43 nM; (input ligand: none) 25.5 nM.

Consider “AAGAAGCAAGGAUAUACAGAGGAGAGUAAAGCAAGAGGAGAACAUGAGGAUCACCCAUGUAGAAGGUGCAGAGA [JR_Exclu2_Sub018] (puzzle: Exclusion 2)”, for which the “apparent KD of MS2 coat protein” value was determined as 40.3 nM under setting [1], 20.3 nM under setting [2] and 29.1 nM under setting [3].

As for “AAGAGUGCAGGAUAUACUUGAUAGGGUAAGGUGAGUGAGGGACAUGAGGAUCACCCAUGUAGAAGGGCAGAGAG [JR_Exclu2_Sub058] (puzzle: Exclusion 2)”, the “apparent KD of MS2 coat protein” value is, setting by setting: under setting [1], 25.8 nM; under setting [2], 33.4 nM; under setting [3], 26.3 nM.

On to “AAGAUGUCAGGAUAUUAGUAGUAAAUAAAUAAAAUUAUUACUGAGAAGGGACAUGAGGAUCACCCAUGUGCCUU [Salish 062 v10] (Eterna round: R97, puzzle: Exclusion 4)”, for which the “apparent KD of MS2 coat protein” value by setting is: (input ligand: FMN 200 uM) 16.4 nM; (input ligand: none) 16.9 nM.

For the sequence “AAGAUGUGAGGAUAUCACGAAGGCGUCAAACUGACGCCUUCUGAGAAGGCACAUGAGGAUCACCCAUGUCCAAA [EX4 A.23] (Eterna round: R97, puzzle: Exclusion 4)”, the “apparent KD of MS2 coat protein” value (input ligand: FMN 200 uM) stood at 325 nM and the “apparent KD of MS2 coat protein” value (input ligand: none) worked out at 58.6 nM.

Regarding “AAGCAUGGAGGAUAUACAUGAGGAUCACCCAUGUCCAGGUCCACGGGUAUUUUGUUGCGUAGAAGGCCAUGUAG [Eternabot (L2) Solution 21] (Eterna round: R97, puzzle: Exclusion 3)”, the “apparent KD of MS2 coat protein” value is 242 nM (input ligand: FMN 200 uM) and 46.8 nM (input ligand: none).

Turning to “AAGCAUUGCCAAAGGUAGUGCUUUACAUGAGGAUCACCCAUGUAGGAUAUGGUAGGCAAAGCUUACCAGAAGGACAUGAUAAUU [Mat - Exclusion NG 3 - Mod of JL - D13] (Eterna round: R96, puzzle: Exclusion NG 3)”, the “apparent KD of MS2 coat protein” value (input ligand: FMN 200 uM) is 151 nM, the “apparent KD of MS2 coat protein” value under setting [4] amounted to 47.4 nM and the “apparent KD of MS2 coat protein” value (input ligand: none) was 47.9 nM.

Regarding “AAGCCACAUGAGGAUCACCCAUGUCAGGAUAUCUCGAAAAGCAUAGAAAUAUGCGAAGAGAGAAGGGACUACUC [ChP Ext 10-04-2015 #4] (puzzle: Exclusion 1)”, under setting [2], the “apparent KD of MS2 coat protein” value worked out at 42.7 nM.

With “AAGCCCUGAGGAUAUCCCAACUCGCACAUGAGGAUCACCCAUGUCCUCCUCCGGGCUUCGGGAGAAGGCAGGUCUC [Megrez-7.8] (Eterna round: R97, puzzle: Exclusion 5)”, the “apparent KD of MS2 coat protein” value was 186 nM (input ligand: FMN 200 uM) and 25.7 nM (input ligand: none).

Turning to “AAGGAUAGAGGAUAUACAUAGAUACAGAUUCAUGUGGAACUACAUGAGGAUCACCCAUGUAGAAGGCUAUCCUA [Fiskers Ex 2 - 9] (puzzle: Exclusion 2)”, the “apparent KD of MS2 coat protein” value under setting [2] was 35.9 nM.

For the sequence “AAGGAUAGAGGAUAUAUAUAGAUACAGAUUCAUGUAGAACUACAUGAGGAUCACCCAUGUAGAAGGCUAUCCUA [Fiskers Ex 2 - 10] (puzzle: Exclusion 2)”, the “apparent KD of MS2 coat protein” value under setting [2] was found to be 14.7 nM.

As for “AAGGGUGCUUUCGGAACGACAUGAGGAUCACCCAUGUAGACUGAGGAUAUCUACUUCUAAGGACGGGAGAAGGCAGUGUAAUGU [Ex NG3 #70] (Eterna round: R96, puzzle: Exclusion NG 3)”, the “apparent KD of MS2 coat protein” value reads like this: (input ligand: FMN 200 uM) 44.5 nM; under setting [4], 29 nM; (input ligand: none) 39.8 nM.

On to “AAGGUGUUAGGAUAUCGAAGGUUGUGGCAGGCGGGAAUUUGCGAGAAGGAACAUGAGGAUCACCCAUGUAAAAU [JR_Exclu4_Sub042] (puzzle: Exclusion 4)”, for which the “apparent KD of MS2 coat protein” value under setting [2] was 25 nM.

Regarding “AAGUAACAUGAGGAUCACCCAUGUUAGGAUAUCUCGGCCACAGGAUCCCUGUGAAGCCAGAGAAGGAGCGGGUG [Ceraso] (Eterna round: R97, puzzle: Exclusion 1)”, the “apparent KD of MS2 coat protein” value (input ligand: FMN 200 uM) came out at 169 nM and the “apparent KD of MS2 coat protein” value (input ligand: none) turned out to be 202 nM.

As for “AAGUAGGAUGUUAGGAUAUCGCCCUCGCAAUAGGGCGAGAAGGGACAUGAGGAUCACCCAUGUAGGCGAUAGAA [Laedesed] (Eterna round: R97, puzzle: Brourd's mod of Exclusion 4)”, the “apparent KD of MS2 coat protein” value was found to be 29.3 nM (input ligand: FMN 200 uM) and 16.9 nM (input ligand: none).

For “AAGUAGUGACAGGAUAUUGUUCAUGAUAUGGAACAAGAAGGGUUAACAUGAGGAUCACCCAUGUAUCCUCCGUG [Eternabot (L2) Solution 14] (Eterna round: R97, puzzle: Exclusion 6)”, the “apparent KD of MS2 coat protein” value (input ligand: FMN 200 uM) was 401 nM and the “apparent KD of MS2 coat protein” value (input ligand: none) was determined as 44.9 nM.

With “AAGUAUCAUGUAGGAUAUGCUAACCGAACGUUAGCAGAAGGACAUGAGGAUCACCCAUGUUCUCAUCUGUAAGAACAGAUGUCU [Ex NG1 #6] (Eterna round: R96, puzzle: Exclusion NG 1)”, the “apparent KD of MS2 coat protein” value (input ligand: FMN 200 uM) came out at 27.9 nM, the “apparent KD of MS2 coat protein” value under setting [4] turned out to be 12.6 nM and the “apparent KD of MS2 coat protein” value (input ligand: none) worked out at 15.5 nM.

For the sequence “AAUAACAAGCUGAUCCUAAACAUGAGGAUCACCCAUGUGCUCGUCUUGUAAAGUACUAUCACGAAAGUGAUAGUACA [MOD7 of my MOD of Eli's v1-59 (mutation at 11 A to U)] (Eterna round: R97, puzzle: Sensor, turn-off variant 1)”, the “apparent KD of MS2 coat protein” value by setting is: (input ligand: FMN 200 uM) 118 nM; (input ligand: none) 142 nM.
